# Measurements from paper PMC10027511 (2023).
# T1: Sos site 2 peptide site 2 peptide (Drosophila melanogaster, UniProt P26675)
# T1 chain: GELSPPPIPPRL
# B1: Drk N-terminal SH3 domain N-terminal SH3 (protein)
# chain: MEAIAKHDFSATADDELSFRKGQILKILNMEDDSNWYRAELDGKEGLIPSNYIEMKNH
# What was measured:
# [1] = target: T1, Sos site 2 peptide site 2 peptide; test: 19F NMR lineshape analysis, 25 °C
# [2] = target: T1, Sos site 2 peptide site 2 peptide; test: 19F NMR lineshape analysis, 15 °C
# [3] = target: T1, Sos site 2 peptide site 2 peptide; test: 19F NMR lineshape analysis, 35 °C
# [4] = target: T1, Sos site 2 peptide site 2 peptide; test: 19F NMR lineshape analysis, 45 °C
# [5] = target: T1, Sos site 2 peptide site 2 peptide; test: 19F NMR lineshape analysis, 4.2 °C
binder,measurement,setting,value
B1,Kd,[1],33 µM
same,Kd,[2],17 µM
same,Kd,[3],59 µM
same,Kd,[4],110 µM
same,Kd,[5],9 µM
